Patent publication US20250002907A1

Tests used:
[1] = target: Rpk4 monomer (with Avi and hexa-histidine tags) (SARS-CoV-2 (Wuhan-Hu-1))
[2] = target: Rpk9 monomer (with Avi and hexa-histidine tags) (SARS-CoV-2 (Wuhan-Hu-1))

In the case of CR3022 IgG (antibody), the fold decrease of affinity against wild-type RBD [1] is reported as under 3.5 fold and the fold decrease of affinity against wild-type RBD [2] is reported as under 3.5 fold.
